The record followed here is PMC2921345.

In test [1] the target is mRFP-Toca-1 (Transducer of Cdc42-dependent actin assembly, wild type). Kind of test: AP-FRET (acceptor photobleaching FRET) in transfected cells.
Test [2] deals with mRFP-Toca-1 (Transducer of Cdc42-dependent actin assembly, wild type) (human). Put plainly: FRET or BRET; frequency-domain FLIM of the GFP donor (LIFA system, 40 MHz) in cells co-expressing GFP and mRFP proteins; lifetime of GFP in cells approximately 2.2 ns.
Test [3] deals with GFP-N-WASP (neuronal Wiskott Aldrich syndrome protein, wild type) (UniProt O08816). Put plainly: AP-FRET (acceptor photobleaching FRET) in transfected cells. Particulars: mRFP-Toca-1MGD383-385IST and GFP-N-WASP; 36 hr expression; n = 7-10, from 2-3 experiments.

mRFP-Toca-1 (Transducer of Cdc42-dependent actin assembly, wild type) (human), sequence (Q5T0N5 whole entry): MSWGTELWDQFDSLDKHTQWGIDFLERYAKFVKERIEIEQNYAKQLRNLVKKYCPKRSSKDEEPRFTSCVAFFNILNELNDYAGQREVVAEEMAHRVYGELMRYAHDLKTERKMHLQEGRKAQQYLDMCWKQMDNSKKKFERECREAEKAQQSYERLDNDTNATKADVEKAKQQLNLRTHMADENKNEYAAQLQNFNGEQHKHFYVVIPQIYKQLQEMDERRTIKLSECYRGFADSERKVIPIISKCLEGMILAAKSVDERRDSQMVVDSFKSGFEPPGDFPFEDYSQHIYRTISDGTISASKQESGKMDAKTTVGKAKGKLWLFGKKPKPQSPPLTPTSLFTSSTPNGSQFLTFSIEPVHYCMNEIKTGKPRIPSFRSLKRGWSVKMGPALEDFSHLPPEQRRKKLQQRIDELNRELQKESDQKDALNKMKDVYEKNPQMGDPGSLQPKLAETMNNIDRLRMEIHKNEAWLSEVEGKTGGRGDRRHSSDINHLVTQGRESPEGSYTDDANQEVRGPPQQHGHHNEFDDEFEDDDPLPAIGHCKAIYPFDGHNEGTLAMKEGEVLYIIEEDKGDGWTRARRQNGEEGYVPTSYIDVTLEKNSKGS

Turning to Cdc42 (wild type) G12V, the other: FRET efficiency in test [1] (ROI on tubules, mRFP-Toca-1, HA-N-WASP and GFP-Cdc42G12V co-expressed, 36 hours expression) came to 9%; in test [1] (ROI on vesicles, mRFP-Toca-1, HA-N-WASP and GFP-Cdc42G12V co-expressed, 36 hours expression), 0.03%.

With “GFP-N-WASP (neuronal Wiskott Aldrich syndrome protein, wild type) (from UniProt O08816 1-501) (natural protein)”, in test [2], the GFP donor lifetime (FLIM), in tubules came to 1.59 ns and the GFP donor lifetime (FLIM), in vesicles stood at 1.64 ns.

“GFP-N-WASP (neuronal Wiskott Aldrich syndrome protein, wild type) (from UniProt O08816) H208D” registered an other: FRET efficiency in test [1] (mRFP-Toca-1 and GFP-N-WASPH208D, 36 hr expression, n = 7-10, from 2-3 experiments) of 3.87%.

For the substance “mRFP-Toca-1 (Transducer of Cdc42-dependent actin assembly, wild type) M383I; G384S; D385T”, in test [3], the other: FRET efficiency was 17.5%.
